Holding throughout (test): cell-based or functional assay
The target of one experiment is hGLP-1R (Homo sapiens, UniProt P43220).
Experiment [1] deals with T1, human GIP receptor (human) (UniProt P48546).
T1 sequence (looked up): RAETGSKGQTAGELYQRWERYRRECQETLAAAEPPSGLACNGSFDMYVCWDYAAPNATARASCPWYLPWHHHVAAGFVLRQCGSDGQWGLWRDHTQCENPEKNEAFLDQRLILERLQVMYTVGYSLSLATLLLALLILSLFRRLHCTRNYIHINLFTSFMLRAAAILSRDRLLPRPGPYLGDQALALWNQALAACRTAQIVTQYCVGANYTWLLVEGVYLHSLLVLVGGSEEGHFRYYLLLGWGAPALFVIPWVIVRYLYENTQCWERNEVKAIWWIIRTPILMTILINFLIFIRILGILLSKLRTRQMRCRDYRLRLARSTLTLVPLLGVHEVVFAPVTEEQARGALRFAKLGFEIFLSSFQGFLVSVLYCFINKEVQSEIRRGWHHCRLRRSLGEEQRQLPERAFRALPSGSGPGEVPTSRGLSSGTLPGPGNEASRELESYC

Experiment [2] concerns the target human glucagon receptor (human) (UniProt P47871).

Chain of human glucagon receptor (human) (P47871 26-477): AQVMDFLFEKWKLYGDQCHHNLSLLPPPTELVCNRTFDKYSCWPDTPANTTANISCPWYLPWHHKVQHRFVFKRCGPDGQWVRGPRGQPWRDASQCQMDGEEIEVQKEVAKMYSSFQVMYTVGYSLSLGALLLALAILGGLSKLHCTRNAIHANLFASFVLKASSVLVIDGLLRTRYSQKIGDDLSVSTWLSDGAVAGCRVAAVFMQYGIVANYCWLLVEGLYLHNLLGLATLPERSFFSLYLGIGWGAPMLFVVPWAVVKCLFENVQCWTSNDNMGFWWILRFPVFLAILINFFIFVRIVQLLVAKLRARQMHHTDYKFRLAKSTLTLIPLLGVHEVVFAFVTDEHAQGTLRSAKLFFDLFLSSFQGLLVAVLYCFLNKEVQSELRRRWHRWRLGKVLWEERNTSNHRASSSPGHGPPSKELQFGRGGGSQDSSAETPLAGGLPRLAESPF
Chain of hGLP-1R (P43220 24-463): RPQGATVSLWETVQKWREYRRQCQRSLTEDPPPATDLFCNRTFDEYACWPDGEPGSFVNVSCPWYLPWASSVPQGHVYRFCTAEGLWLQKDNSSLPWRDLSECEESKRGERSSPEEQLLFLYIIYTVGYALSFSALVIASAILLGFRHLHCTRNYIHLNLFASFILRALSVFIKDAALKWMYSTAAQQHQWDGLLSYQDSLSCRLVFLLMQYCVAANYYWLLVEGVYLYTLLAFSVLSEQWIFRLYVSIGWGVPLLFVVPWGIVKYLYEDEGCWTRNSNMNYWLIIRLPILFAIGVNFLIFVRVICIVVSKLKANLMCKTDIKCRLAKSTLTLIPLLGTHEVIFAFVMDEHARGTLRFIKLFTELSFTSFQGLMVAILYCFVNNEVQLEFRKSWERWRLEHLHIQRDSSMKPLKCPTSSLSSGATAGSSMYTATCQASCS

B1: Example 1138 (peptide)
chain: YXQGTFTSDXXQXLDXKAQXQFIQXLLEXGPSSGAPPPSGGGE
modifications: not fully specified; non-natural residues, acylated Lys, C-terminal amide; synthetic construct; SITE 2: note = 2-Aminoisobutyric Acid; SITE 10: note = 3-(4-Pyridyl)-L-alanine; SITE 11: note = alpha-methyl-L-serine; SITE 13: note = alpha-methyl-leucine; SITE 16: note = L-ornithine; SITE 17: note = Lysine is chemically modified through conjugation of the epsilon-amino group
Turning to B1, the Relative cAMP EC50 in the experiment with hGLP-1R was 1.93 nM; in experiment [1], 0.0491 nM; in experiment [2] it was 1.01 nM.

B2: Example 1139 (peptide)
chain: YXQGTFTSDXXQXLDXKAQXQFIQXLLEXGPSSGAPPPSGGGE
modifications: not fully specified; non-natural residues (Aib, 4Pal, αMeS, Iva, αMeY); lipidated K; amide; synthetic construct; SITE 2: note = 2-Aminoisobutyric Acid; SITE 10: note = 3-(4-Pyridyl)-L-alanine; SITE 11: note = alpha-methyl-L-serine; SITE 13: note = alpha-methyl-leucine; SITE 16: note = L-ornithine; SITE 17: note = Lysine is chemically modified through conjugation of the epsilon-amino group
Take B2: the Relative cAMP EC50 in the experiment with hGLP-1R was found to be 1.85 nM; in experiment [1] it was 0.0431 nM; in experiment [2] it was 5.29 nM.

B3: Example 1134 (peptide)
chain: YXQGTFTSDXXQXLDXKAQXQFIQXLIEXGPSSGAPPPSGGGE
modifications: not fully specified; N-methyl-Tyr, non-natural residues, acylated Lys (γGlu-C18 diacid), C-terminal amide; synthetic construct; SITE 1: note = N-methyl-tyrosine; SITE 2: note = 2-Aminoisobutyric Acid; SITE 10: note = 3-(4-Pyridyl)-L-alanine; SITE 11: note = alpha-methyl-L-serine; SITE 13: note = alpha-methyl-leucine; SITE 16: note = L-ornithine; SITE 17: note = Lysine is chemically modified …
B3: the Relative cAMP EC50 with hGLP-1R turned out to be 0.957 nM; in experiment [1] it was 0.0391 nM; in experiment [2] it was 2.57 nM.

B4: Example 1136 (peptide)
chain: YXQGTFTSDXXIXLDXKAQXQFIQXLIEXGPSSGAPPPSGGGE
modifications: not fully specified; non-natural residues (Aib, 4Pal, αMeS, Orn, Me4Pal); lipidated Lys; C-amide; synthetic construct; SITE 2: note = 2-Aminoisobutyric Acid; SITE 10: note = 3-(4-Pyridyl)-L-alanine; SITE 11: note = alpha-methyl-L-serine; SITE 13: note = alpha-methyl-leucine; SITE 16: note = L-ornithine; SITE 17: note = Lysine is chemically modified through conjugation of the epsilon-amino group
Turning to B4, the Relative cAMP EC50 came to 0.453 nM with hGLP-1R, 0.0131 nM in experiment [1] and 1.26 nM in experiment [2].

B5: Example 247 (peptide)
chain: YXQGTFTSDFSXXLDKKAQXAFIEYLLEXGHSSGAPPPSGE
modifications: non-natural residues; lipidated Lys AEEA-γGlu-C18 diacid; C-term amide; synthetic construct; SITE 2: note = 2-Aminoisobutyric Acid; SITE 12: note = L-ornithine; SITE 13: note = alpha-methyl-leucine; SITE 17: note = Lysine is chemically modified through conjugation of the epsilon-amino group of the Lysine side chain with (2-[2-(2-Amino-ethoxy)-ethoxy]-acetyl)-(gamma-Glu)
As to B5, the cAMP Rel EC50 (in the presence of 1% HSA) with hGLP-1R was 291 nM; in experiment [1], 12.9 nM; in experiment [2], 443 nM.

B6: Example 266 (peptide)
chain: YXQGTFTSDFSXXLDKKAQXAFIEWLLEXGHSSGAPPPSGE
modifications: Aib, Orn, αMeL; K acylated with (AEEA)2-γGlu-C18 diacid; C-amide; synthetic construct; SITE 2: note = 2-Aminoisobutyric Acid; SITE 12: note = L-ornithine; SITE 13: note = alpha-methyl-leucine; SITE 17: note = Lysine is chemically modified through conjugation of the epsilon-amino group of the Lysine side chain with (2-[2-(2-Amino-ethoxy)-ethoxy]-acetyl)2-(gamma-Glu)
Turning to B6, the cAMP Rel EC50 (in the presence of 1% HSA) in the experiment with hGLP-1R stood at 583 nM; in experiment [1], 17.3 nM; in experiment [2], 923 nM.

B7: Example 1127 (peptide)
chain: YXQGTFTSDXSQXLDKKAQXAFIEYLIEXGPSSGAPPPSGTGE
modifications: Aib, 4Pal, Me4Pal, alpha-methyl-Leu, lipidated Lys, C-terminal amide; synthetic construct; SITE 2: note = 2-Aminoisobutyric Acid; SITE 10: note = 3-(4-Pyridyl)-L-alanine; SITE 13: note = alpha-methyl-leucine; SITE 17: note = Lysine is chemically modified through conjugation of the epsilon-amino group of the Lysine side chain with (gamma-Glu)2-CO-(CH2)16-CO2H; SITE 20:
B7: the Relative cAMP EC50 with hGLP-1R was found to be 6.16 nM; in experiment [1], 0.167 nM; in experiment [2] it was 5.95 nM.

B8: Example 1142 (peptide)
chain: YXQGTXTSDXXIXLDXKAQXEFIEXLIEGGPSSGAPPPTGE
modifications: Aib, αMeF(2F), 4Pal, αMeS, αMeL, Orn, Me4Pal, αMeY, acyl, amide; synthetic construct; SITE 2: note = 2-Aminoisobutyric Acid; SITE 6: note = alpha-methyl-2-fluoro-L-phenylalanine; SITE 10: note = 3-(4-Pyridyl)-L-alanine; SITE 11: note = alpha-methyl-L-serine; SITE 13: note = alpha-methyl-leucine; SITE 16: note = L-ornithine; SITE 17: note = Lysine is chemically mo
As for B8, the Relative cAMP EC50 in the experiment with hGLP-1R was determined as 0.329 nM; in experiment [1] it was 0.00706 nM; in experiment [2] it was 1.34 nM.

B9: Example 1148 (peptide)
chain: YXQGTXTSDXXIXLDXKAQXEFIEXLIEGGPSSGAPPPEGE
modifications: non-natural residues, AEEA-γGlu-diacid acylated Lys, C-terminal amide; synthetic construct; SITE 2: note = 2-Aminoisobutyric Acid; SITE 6: note = alpha-methyl-2-fluoro-L-phenylalanine; SITE 10: note = 3-(4-Pyridyl)-L-alanine; SITE 11: note = alpha-methyl-L-serine; SITE 13: note = alpha-methyl-leucine; SITE 16: note = L-ornithine; SITE 17: note = Lysine is chemically mo
As to B9, the Relative cAMP EC50 in the experiment with hGLP-1R amounted to 0.299 nM; in experiment [1], 0.00801 nM; in experiment [2] it was 1.6 nM.

B10: Example 1144 (peptide)
chain: YXQGTXTSDXXIXLDXKAQXEFIEXLIEGGPSSGAPPPGGE
modifications: non-natural residues; K acylated AEEA-γGlu-C18 diacid; C-amide; synthetic construct; SITE 2: note = 2-Aminoisobutyric Acid; SITE 6: note = alpha-methyl-2-fluoro-L-phenylalanine; SITE 10: note = 3-(4-Pyridyl)-L-alanine; SITE 11: note = alpha-methyl-L-serine; SITE 13: note = alpha-methyl-leucine; SITE 16: note = L-ornithine; SITE 17: note = Lysine is chemically mo
Regarding B10, the Relative cAMP EC50 in the experiment with hGLP-1R worked out at 0.282 nM; in experiment [1], 0.00649 nM; in experiment [2], 1.32 nM.

B11: Example 1146 (peptide)
chain: YXQGTXTSDXXIXLDXKAQXEFIEXLIEGGPSSGAPPPESE
modifications: non-natural residues, acylated Lys, C-terminal amide; synthetic construct; SITE 2: note = 2-Aminoisobutyric Acid; SITE 6: note = alpha-methyl-2-fluoro-L-phenylalanine; SITE 10: note = 3-(4-Pyridyl)-L-alanine; SITE 11: note = alpha-methyl-L-serine; SITE 13: note = alpha-methyl-leucine; SITE 16: note = L-ornithine; SITE 17: note = Lysine is chemically mo
On to B11, for which the Relative cAMP EC50 in the experiment with hGLP-1R came to 0.281 nM; in experiment [1] it was 0.00628 nM; in experiment [2], 1.22 nM.

B12: Example 1126 (peptide)
chain: YXQGTFTSDXSQXLDKKAQXAFIEYLIEXGPSSGAPPPSGTE
modifications: non-natural residues; (γGlu)2-C18 diacid on Lys; C-terminal amide; synthetic construct; SITE 2: note = 2-Aminoisobutyric Acid; SITE 10: note = 3-(4-Pyridyl)-L-alanine; SITE 13: note = alpha-methyl-leucine; SITE 17: note = Lysine is chemically modified through conjugation of the epsilon-amino group of the Lysine side chain with (gamma-Glu)2-CO-(CH2)16-CO2H; SITE 20:
Turning to B12, the Relative cAMP EC50 in the experiment with hGLP-1R was determined as 4.56 nM; in experiment [1], 0.174 nM; in experiment [2], 3.92 nM.
